Laboratory results reported in PMC12577854, “CsUGT89A2 enhances tea plant resistance to Toxoptera aurantia by mediating flavonoid glycosides biosynthesis” (Horticulture Research, 2025).

Key:
Assay in all cases: HPLC assay of 7-O-glucoside formation
Format in all cases: biochemical, Camellia sinensis
Conditions in all cases: 2.5 mM UDP-glucose, pH 8.0, 40°C
[1] = system: T1, O=c1cc(-c2ccc(O)c(O)c2)oc2cc(O)cc(O)c12
T1 construct: Ni-TED purified (methods say amylose resin)

[2] = system: T2, O=c1c(O)c(-c2ccc(O)cc2)oc2cc(O)cc(O)c12
T2 construct: Ni-TED purified (methods say amylose resin)

[3] = system: T3, O=c1c(O)c(-c2ccc(O)c(O)c2)oc2cc(O)cc(O)c12
T3 construct: Ni-TED purified (methods say amylose resin)

[4] = system: T4, O=c1cc(-c2ccc(O)cc2)oc2cc(O)cc(O)c12
T4 construct: Ni-TED purified (methods say amylose resin)

rCsUGT89A2 (CsUGT89A2, LOC114303213) (Camellia sinensis var. sinensis)
Km [1]: 76.4 µM | Km [2]: 164.5 µM | Km [3]: 106.0 µM | Km [4]: 46.3 µM
